Results reported in US20180214548A1 (SHANGHAI YUNYI HEALTHCARE AND TECHNOLOGY, published 2018).

T1: CTLA4 (human, UniProt P16410 37-162, limits assumed)
T1 sequence (looked up): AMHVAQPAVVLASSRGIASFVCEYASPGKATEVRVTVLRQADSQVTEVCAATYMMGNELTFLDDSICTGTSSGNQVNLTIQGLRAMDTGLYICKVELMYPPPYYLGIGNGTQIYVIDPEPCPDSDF

T2: B7.1 (human, UniProt P33681 35-242)
T2 sequence (looked up): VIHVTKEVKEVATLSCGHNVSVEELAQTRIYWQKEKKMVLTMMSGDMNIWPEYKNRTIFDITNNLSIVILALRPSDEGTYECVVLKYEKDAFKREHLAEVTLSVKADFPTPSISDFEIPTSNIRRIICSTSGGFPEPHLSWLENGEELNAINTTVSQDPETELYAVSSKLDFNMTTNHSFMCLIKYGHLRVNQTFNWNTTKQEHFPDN

T3: ICOS (human, UniProt Q9Y6W8 21-140, limits assumed)
T3 sequence (looked up): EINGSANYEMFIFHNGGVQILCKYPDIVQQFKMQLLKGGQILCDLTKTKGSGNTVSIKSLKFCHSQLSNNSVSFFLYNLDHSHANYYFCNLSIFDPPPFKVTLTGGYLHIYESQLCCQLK


Columns and labels:
[1] = target: T4, human PD-1^ECD-hFc protein (Immunogen A) (human, UniProt Q15116 25-167); test: ELISA, coated human PD-1ECD-hFc
T4 construct: also called PD-1-hFc; hPD-1^ECD-hFc; not shown: human IgG Fc fragment (hFc)
T4 sequence (Q15116 25-167): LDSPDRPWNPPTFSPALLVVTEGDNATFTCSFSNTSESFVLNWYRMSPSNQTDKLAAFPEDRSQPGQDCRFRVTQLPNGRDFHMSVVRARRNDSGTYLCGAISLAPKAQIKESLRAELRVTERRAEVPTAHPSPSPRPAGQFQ

[2] = target: T1, CTLA4; test: ELISA, coated protein, antibody concentration not given
[3] = target: T5, NC-Fc; test: as above
T5 construct: seemingly a negative control Fc protein

[4] = target: T2, B7.1; test: as above
[5] = target: CD28 (human, UniProt P10747 19-152); test: as above
[6] = target: T4, human PD-1^ECD-hFc protein (Immunogen A); test: as above
[7] = target: T3, ICOS; test: as above
[8] = target: T6, cyno monkey PD-1^ECD-hFc protein (cyno monkey, UniProt B0LAJ3 25-167); test: ELISA, coated cyno PD-1ECD-hFc
T6 construct: also called cyno PD-1^ECD-hFc; not shown: human IgG Fc fragment (hFc) and its junction to the ECD

[9] = target: T7, human PD-1, full length, on cells (human, UniProt Q15116 25-288); test: flow cytometry on CHO-K1-hPD-1 cells
T7 construct: whole, on cells; in the lymphocyte assays the natural PD-1 of human T cells/PBMCs; also called hPD-1; CHO-K1-hPD-1

[10] = target: T8, full length human PD-1 on cells (human, UniProt Q15116 25-288); test: flow cytometry, CHO-K1-hPD-1 cells; antibody 0.1 nM
T8 construct: Also used here for PD-1 on human T cells/PBMC; also called CHO-K1-hPD-1; hPD-1
Source text: (§1) CHO-K1 cells were stably transfected with pIRES plasmid containing the nucleic acid sequence encoding full length human PD-1 (see Example 2, step 2) to generate CHO-K1 cells stably expressing human PD-1 (herein referred to as CHO-K1-hPD-1 cells). Other CHO-K1 were stably transfected with pIRES plasmid containing the nucleic acid sequence encoding full length cyno PD-1 to generate CHO-K1 cells stably expressing cyno PD-1 (herein referred to as CHO-K1-cPD-1 cells). CHO-K1-hPD-1 and CHO-K1-cPD-1 cells were cultured and expanded in T-75 culture flasks to 90% confluence. The culture media was aspirated, and the cells were washed twice with HBSS (Hanks Balanced Salt Solution, Invitrogen). The cells were treated with enzyme-free cell dissociation solution (Versene solution, Invitrogen) and collected. The cells were then washed twice with HBSS, cell counts were determined, and cells were resuspended with HBSS at 2×10⁶ cells/mL. Goat serum was added to the cell suspension to a final concentration of 1%, and the cells were blocked for 30 minutes on ice and then washed twice with HBSS. The cells were collected after centrifugation and resuspended in FACS buffer (HBSS+1% BSA, v/v) at 2×10⁶ cells/mL. 100 uL of the cell suspension were then added to each well of 96-well plate. 100 uL of purified anti-PD-1 antibodies from Example 2 were added to each well of the 96-well plate and incubated for 2 hours on ice. […] The samples were washed three times with FACS buffer, and 100 uL fixation buffer (4% paraformaldehyde v/v) were added to each well and incubated for 10 minutes. The cells were then washed twice with FACS buffer and resuspended in 100 uL FACS buffer. The mean fluorescence intensity (MFI) was determined using FACS Calibur (BD), and the results are shown in FIGS. 7-8 and in Tables 10-11.

[11] = target: T9, human PD-1^ECD-hFc protein (Immunogen A) (human, UniProt Q15116 25-167); test: ELISA, coated human PD-1ECD-hFc; antibody 0.00001 nM
T9 construct: Biotinylated for the Octet assay; also called PD-1-hFc; hPD-1^ECD-hFc; not shown: human IgG Fc fragment (hFc)
Experimental: (§2) 100 uL of the diluted recombinant proteins were added to each well of 96-well plate. The plates were sealed with plastic film and incubated at 4° C. overnight. The plates were washed twice with wash buffer (PBS+0.01% (v/v) Tween20), and incubated with blocking buffer (PBS+0.01% (v/v) Tween20+1% (w/w) BSA) at room temperature for 2 hours. The blocking buffer was aspirated away, and 100 uL of purified anti-PD-1 antibodies were added to each well and incubated for 2 hours at 37° C. The plates were washed three times with wash buffer (PBS+0.01% (v/v) Tween20). HRP-conjugated secondary antibody (Sigma) was added to each well and incubated for 2 hours at 37° C. After the plates were washed three times with wash buffer, 100 uL TMB substrate was added to each well and incubated for 30 minutes at room temperature. 100 uL stop solution (0.1N HCl) was added to each well to stop the reaction. The absorbance at 450 nm was measured with an ELISA plate reader (384plus SpectraMax, Molecular Devices).
T9 sequence (Q15116 25-167): as above

[12] = target: T8, full length human PD-1 on cells; test: flow cytometry, CHO-K1-hPD-1 cells; antibody 31.6 nM
Source text: as §1

[13] = target: T8, full length human PD-1 on cells; test: flow cytometry, CHO-K1-hPD-1 cells; antibody 3.16 nM
Source text: as §1

[14] = target: T9, human PD-1^ECD-hFc protein (Immunogen A); test: ELISA, coated human PD-1ECD-hFc; antibody 0.01 nM
Experimental: as §2

[15] = target: T8, full length human PD-1 on cells; test: flow cytometry, CHO-K1-hPD-1 cells; antibody 100 nM
Source text: as §1

[16] = target: T9, human PD-1^ECD-hFc protein (Immunogen A); test: ELISA, coated human PD-1ECD-hFc; antibody 1 nM
Experimental: as §2

[17] = target: T8, full length human PD-1 on cells; test: flow cytometry, CHO-K1-hPD-1 cells; antibody 10 nM
Source text: as §1

[18] = target: T9, human PD-1^ECD-hFc protein (Immunogen A); test: ELISA, coated human PD-1ECD-hFc; antibody 10 nM
Experimental: as §2

[19] = target: T8, full length human PD-1 on cells; test: flow cytometry, CHO-K1-hPD-1 cells; antibody 0.316 nM
Source text: as §1

[20] = target: T9, human PD-1^ECD-hFc protein (Immunogen A); test: ELISA, coated human PD-1ECD-hFc; antibody 0.0001 nM
Experimental: as §2

[21] = target: T9, human PD-1^ECD-hFc protein (Immunogen A); test: ELISA, coated human PD-1ECD-hFc; antibody 100 nM
Experimental: as §2

[22] = target: T8, full length human PD-1 on cells; test: flow cytometry, CHO-K1-hPD-1 cells; antibody 0.0316 nM
Source text: as §1

[23] = target: T8, full length human PD-1 on cells; test: flow cytometry, CHO-K1-hPD-1 cells; antibody 1 nM
Source text: as §1

[24] = target: T9, human PD-1^ECD-hFc protein (Immunogen A); test: ELISA, coated human PD-1ECD-hFc; antibody 0.1 nM
Experimental: as §2

[25] = target: T9, human PD-1^ECD-hFc protein (Immunogen A); test: ELISA, coated human PD-1ECD-hFc; antibody 0.001 nM
Experimental: as §2

T6 sequence (B0LAJ3 entry or part of it limits assumed): as the sequence (Q15116 25-167) above, with D2E, P10A, V19L, T35A, Q75R counted along it
T8 sequence (Q15116 25-288 limits assumed): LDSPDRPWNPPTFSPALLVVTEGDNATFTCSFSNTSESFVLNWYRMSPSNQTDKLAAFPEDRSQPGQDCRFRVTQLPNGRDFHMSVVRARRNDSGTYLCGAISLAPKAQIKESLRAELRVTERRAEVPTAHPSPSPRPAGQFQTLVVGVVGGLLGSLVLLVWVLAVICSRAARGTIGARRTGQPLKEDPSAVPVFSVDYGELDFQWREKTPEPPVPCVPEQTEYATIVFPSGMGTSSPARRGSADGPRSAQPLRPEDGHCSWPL
T7 sequence (Q15116 25-288): as the sequence (Q15116 25-288 limits assumed) above
Sequence of CD28 (P10747 19-152 limits assumed): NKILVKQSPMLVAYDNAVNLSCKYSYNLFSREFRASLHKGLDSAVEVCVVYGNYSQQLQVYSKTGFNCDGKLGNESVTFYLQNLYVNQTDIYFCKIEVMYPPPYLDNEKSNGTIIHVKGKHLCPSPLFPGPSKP

Binder | OD450 nm [2] [OD450] | OD450 nm [4] [OD450] | OD450 nm [5] [OD450] | OD450 nm [7] [OD450] | OD450 nm at 0 nM [8] [OD450] | OD450 nm at 0.001 nM [8] [OD450] | OD450 nm at 0.01 nM [8] [OD450] | OD450 nm at 0.1 nM [8] [OD450] | OD450 nm at 1 nM [8] [OD450] | OD450 nm at 100 nM [8] [OD450] | Mean fluorescence intensity [10] | OD450 nm [11] | Mean fluorescence intensity [12] | Mean fluorescence intensity [13] | OD450 nm [14] | Mean fluorescence intensity [15] | OD450 nm [16] | Mean fluorescence intensity [17] | OD450 nm [18] | Mean fluorescence intensity [19] | further results
chimeric anti-PD-1 antibody 226C3A7 (antibody, V domains shown, Purified from hybridoma of Harbour H2L2 mice: human variable regions, rat constant regions) VH: QVQLQQSGPGLVNPSQTLSLTCAISGDSVSSNSGAWNWIRQSPSRGLEWLGRTYYRSKWYNDYGISVQSRITINPDTSKNHFSLQLNSVTPEDTAVYYCARDPYYYGSGSYFDYWGQGTLVTVSS VL: EIVMTQSPATLSVSPGERVTLSCRASLSVNSNLAWYQQKPGQAPRLLIYDTSTRATGVPARFSGSGSGTEFTLTISSLQSEDFAVYYCQQYHYWPLTFGGGTKVEIK |  |  |  |  |  |  |  |  |  |  | 3.2 | 0.39 | 826 | 22.9 | 0.9 | 825 | 2.86 | 203 | 2.86 | 3.4 | OD450 nm [20]: 0.4; OD450 nm [21]: 2.83; Mean fluorescence intensity [22]: 4.1; Mean fluorescence intensity [23]: 5.2; OD450 nm [24]: 2.54; OD450 nm [25]: 0.45
chimeric anti-PD-1 antibody 204C5E12 (antibody, V domains shown, Purified from hybridoma of Harbour H2L2 mice: human variable regions, rat constant regions) VH: QVQLVESGGGVVQPGRSLRLSCAASGFSFSYYGMHWVRQAPGKGLEWVAVIWYDGSNKYYADSVKGRFTISRDNSKNTLYLQMNSLRAEDTAVYYCASGITLVRGADYYYNYDMDVWGQGTTVTVSS VL: not shown |  |  |  |  |  |  |  |  |  |  | 2.9 | 0.43 | 986 | 21.4 | 0.68 | 1490 | 2.87 | 160 | 2.84 | 3 | OD450 nm [20]: 0.43; OD450 nm [21]: 2.77; Mean fluorescence intensity [22]: 3; Mean fluorescence intensity [23]: 5; OD450 nm [24]: 2.13; OD450 nm [25]: 0.48

Second part, led by results:

OD450 nm [2] [OD450] | OD450 nm [4] [OD450] | OD450 nm [5] [OD450] | OD450 nm [7] [OD450] | OD450 nm at 0 nM [8] [OD450] | OD450 nm at 0.001 nM [8] [OD450] | OD450 nm at 0.01 nM [8] [OD450] | OD450 nm at 0.1 nM [8] [OD450] | OD450 nm at 1 nM [8] [OD450] | OD450 nm at 100 nM [8] [OD450] | Mean fluorescence intensity [10] | OD450 nm [11] | Mean fluorescence intensity [12] | Mean fluorescence intensity [13] | OD450 nm [14] | Mean fluorescence intensity [15] | OD450 nm [16] | Mean fluorescence intensity [17] | OD450 nm [18] | Mean fluorescence intensity [19] | Binder | further results
0.09 | 0.25 | 0.27 | 0.16 | 0.19 | 0.22 | 0.51 | 2.39 | 2.99 | 3 |  |  |  |  |  |  |  |  |  |  | fully human anti-PD-1 antibody 21G8F11 (antibody, human IgG4 S228P, kappa, V domains shown) VH: EVQLLESGGGLAQPGGSLRLSCAASGFSFNTYLMHWVRQAPGKGLEWVSAISGGGGNTYYADSVKGRFTISRDNSKNTLYLQMNSLRAEDTAVYYCAKENRIPVAPFDYWGQGTLVTVSS VL: DIQMTQSPSTLSASVGDRVTITCRASQSISTWLAWYQQKPGKAPKLLIYKASSLESGVPSRFSGSGSGTEFTLTISSLQPDDLATYYCQQYNSFSWTFGQGTKVEIKR | OD450 nm at 0 nM [1]: 0.18 OD450; OD450 nm at 0.0001 nM [1]: 0.16 OD450; OD450 nm at 0.001 nM [1]: 0.26 OD450; OD450 nm at 0.01 nM [1]: 0.58 OD450; OD450 nm at 0.1 nM [1]: 2.62 OD450; OD450 nm at 1 nM [1]: 3.03 OD450; OD450 nm at 10 nM [1]: 3.02 OD450; OD450 nm at 100 nM [1]: 3.03 OD450; OD450 nm [3]: 0.21 OD450; OD450 nm [6]: 2.7 OD450; OD450 nm at 0.0001 nM [8]: 0.15 OD450; OD450 nm at 10 nM [8]: 3.02 OD450; MFI at 0 nM [9]: 48.8 MFI; MFI at 0.01 nM [9]: 1020 MFI
0.13 | 0.25 | 0.05 | 0.12 | 0.31 | 0.33 | 0.83 | 2.5 | 2.88 | 2.85 |  |  |  |  |  |  |  |  |  |  | fully human anti-PD-1 antibody 223G6B5 (antibody, human IgG4, V domains shown) VH: QVQLQESGPGLVKPSETLSLTCAVSGHSIRGSYFWGWIRQPPGRGLEWIGSIYHSGSTYTNPSLKSRATISVDTSKNQFSLKLNSVTAADTAVYYCARDLDIATTRDYWGQGTLVTVSS VL: DIQLTQSPSFLSASVGDRVTIICRASQGINNYLAWYQQKPGKAPKLLIYAASTLQSGVPSRFSGSGSGTEFTLTISSLQPEDFATYYCQQLDSYPRTFGQGTKVEIKR | 
